The target of assay [1] is proteasome β5 subunit (chymotrypsin-like site) in human cells and cell extracts (human) (UniProt P28074). The assay can be described thus: competition with activity-based probe in living HEK-293 cells, 4 h; Chym-L site.
Assay [2] addresses proteasome β2 subunit (trypsin-like site) in human cells and cell extracts (human) (UniProt Q99436). Put plainly: competition with activity-based probe in living HEK-293 cells, 4 h; Tr-L site.
Assay [3] concerns the target trypsin-like site (β2 subunit) of 26S proteasomes purified from rabbit muscle (rabbit) (UniProt G1SWK8). Put plainly: cell-based or functional assay.
For assay [4], the target named is caspase-like site (β1 subunit) of yeast 20S proteasome (S. cerevisiae) (UniProt P38624). Put plainly: cell-based or functional assay.
Chain of caspase-like site (β1 subunit) of yeast 20S proteasome (S. cerevisiae) (P38624 20-215): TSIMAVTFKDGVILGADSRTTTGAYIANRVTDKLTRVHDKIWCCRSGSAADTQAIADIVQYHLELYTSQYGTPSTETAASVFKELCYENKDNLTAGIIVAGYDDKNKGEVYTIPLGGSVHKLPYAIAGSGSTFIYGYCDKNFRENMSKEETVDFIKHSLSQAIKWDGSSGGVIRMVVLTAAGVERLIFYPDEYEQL
The target in assay [5] is chymotrypsin-like site (β5 subunit) of 26S proteasomes purified from rabbit muscle (rabbit) (UniProt G1T4Q9). Put plainly: cell-based or functional assay.
Chain of chymotrypsin-like site (β5 subunit) of 26S proteasomes purified from rabbit muscle (rabbit) (G1T4Q9 entry or part of it): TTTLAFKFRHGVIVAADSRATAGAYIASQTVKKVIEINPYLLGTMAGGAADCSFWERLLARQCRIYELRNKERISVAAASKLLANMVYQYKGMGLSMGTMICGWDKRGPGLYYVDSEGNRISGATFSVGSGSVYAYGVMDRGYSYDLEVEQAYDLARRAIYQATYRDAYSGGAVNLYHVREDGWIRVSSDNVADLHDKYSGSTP

Usually IC50 stands for the concentration needed to halve the response being measured. Higher therefore signals weaker potency.

Some results are limits rather than exact numbers.

Chain of proteasome β2 subunit (trypsin-like site) in human cells and cell extracts (human) (Q99436 44-277): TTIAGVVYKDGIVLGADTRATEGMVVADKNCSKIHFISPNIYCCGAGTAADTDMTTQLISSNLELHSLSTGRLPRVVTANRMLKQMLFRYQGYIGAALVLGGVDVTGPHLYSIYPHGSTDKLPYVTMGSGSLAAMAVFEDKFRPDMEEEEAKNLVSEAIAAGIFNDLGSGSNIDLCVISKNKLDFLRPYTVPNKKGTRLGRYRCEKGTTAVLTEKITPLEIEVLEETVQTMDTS
Chain of proteasome β5 subunit (chymotrypsin-like site) in human cells and cell extracts (human) (P28074 60-263): as the sequence (G1T4Q9 entry or part of it) above, with D197E counted along it
Chain of trypsin-like site (β2 subunit) of 26S proteasomes purified from rabbit muscle (rabbit) (G1SWK8 entry or part of it): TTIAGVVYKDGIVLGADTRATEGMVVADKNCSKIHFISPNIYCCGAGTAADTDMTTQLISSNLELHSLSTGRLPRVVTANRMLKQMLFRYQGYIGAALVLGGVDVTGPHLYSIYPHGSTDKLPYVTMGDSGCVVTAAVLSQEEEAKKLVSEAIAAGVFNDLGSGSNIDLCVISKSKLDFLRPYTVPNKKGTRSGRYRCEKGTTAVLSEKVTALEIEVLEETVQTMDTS

As for “N3-Phe-Phe(4-CH2NH2)-Leu-Phe(4-CH2NH2)-VS (52) (peptide)”, the IC50 in assay [1] was greater than 50 µM; in assay [2] it was 50 µM. The IC50 (µM) for sites: Tr-L in assay [3] worked out at 0.0066 µM. In assay [4], this substance showed an inhibition of caspase-like sites of yeast 20S proteasome greater than 200 µM. This substance showed an IC50 (µM) for sites: Chym-L in assay [5] of 3.9 µM.

The values above are taken from patent US20130102527A1.
